Measurements taken from paper PMC6100724, “Proteome‐wide analysis of phospho‐regulated PDZ domain interactions” (Molecular Systems Biology, 2018).

B1: Flag‐tagged RPS6KA1: Flag‐tagged full-length wild-type RPS6KA1 expressed in HEK293 cells (protein, UniProt Q15418 1-735, looked up)
chain: MPLAQLKEPWPLMELVPLDPENGQTSGEEAGLQPSKDEGVLKEISITHHVKAGSEKADPSHFELLKVLGQGSFGKVFLVRKVTRPDSGHLYAMKVLKKATLKVRDRVRTKMERDILADVNHPFVVKLHYAFQTEGKLYLILDFLRGGDLFTRLSKEVMFTEEDVKFYLAELALGLDHLHSLGIIYRDLKPENILLDEEGHIKLTDFGLSKEAIDHEKKAYSFCGTVEYMAPEVVNRQGHSHSADWWSYGVLMFEMLTGSLPFQGKDRKETMTLILKAKLGMPQFLSTEAQSLLRALFKRNPANRLGSGPDGAEEIKRHVFYSTIDWNKLYRREIKPPFKPAVAQPDDTFYFDTEFTSRTPKDSPGIPPSAGAHQLFRGFSFVATGLMEDDGKPRAPQAPLHSVVQQLHGKNLVFSDGYVVKETIGVGSYSECKRCVHKATNMEYAVKVIDKSKRDPSEEIEILLRYGQHPNIITLKDVYDDGKHVYLVTELMRGGELLDKILRQKFFSEREASFVLHTIGKTVEYLHSQGVVHRDLKPSNILYVDESGNPECLRICDFGFAKQLRAENGLLMTPCYTANFVAPEVLKRQGYDEGCDIWSLGILLYTMLAGYTPFANGPSDTPEEILTRIGSGKFTLSGGNWNTVSETAKDLVSKMLHVDPHQRLTAKQVLQHPWVTQKDKLPQSQLSHQDLQLVKGAMAATYSALNSSKPTPQLKPIESSILAQRRVRKLPSTTL
modifications: full-length Flag tag
notes: Flag‐tagged full-length wild-type RPS6KA1 expressed in HEK293 cells
B2: RPS6KA2 S730E: Flag‐tagged full-length RPS6KA2 phosphomimetic mutant expressed in HEK293 cells (protein)
chain: MDLSMKKFAVRRFFSVYLRRKSRSKSSSLSRLEEEGVVKEIDISHHVKEGFEKADPSQFELLKVLGQGSYGKVFLVRKVKGSDAGQLYAMKVLKKATLKVRDRVRSKMERDILAEVNHPFIVKLHYAFQTEGKLYLILDFLRGGDLFTRLSKEVMFTEEDVKFYLAELALALDHLHSLGIIYRDLKPENILLDEEGHIKITDFGLSKEAIDHDKRAYSFCGTIEYMAPEVVNRRGHTQSADWWSFGVLMFEMLTGSLPFQGKDRKETMALILKAKLGMPQFLSGEAQSLLRALFKRNPCNRLGAGIDGVEEIKRHPFFVTIDWNTLYRKEIKPPFKPAVGRPEDTFHFDPEFTARTPTDSPGVPPSANAHHLFRGFSFVASSLIQEPSQQDLHKVPVHPIVQQLHGNNIHFTDGYEIKEDIGVGSYSVCKRCVHKATDTEYAVKIIDKSKRDPSEEIEILLRYGQHPNIITLKDVYDDGKFVYLVMELMRGGELLDRILRQRYFSEREASDVLCTITKTMDYLHSQGVVHRDLKPSNILYRDESGSPESIRVCDFGFAKQLRAGNGLLMTPCYTANFVAPEVLKRQGYDAACDIWSLGILLYTMLAGFTPFANGPDDTPEEILARIGSGKYALSGGNWDSISDAAKDVVSKMLHVDPHQRLTAMQVLKHPWVVNREYLSPNQLSRQDVHLVKGAMAATYFALNRTPQAPRLEPVLSSNLAQRRGMKRLTETRL
modifications: left off: 3xFlag, end not stated, kept
notes: Flag‐tagged full-length RPS6KA2 phosphomimetic mutant expressed in HEK293 cells

Assays:
GST‐tagged Scribble PDZ1 = assay: GST-pulldown from HEK293 lysates with GST-tagged Scribble PDZ1; assay type: binding, human; conditions: Flag‐tagged full-length protein over-expressed in HEK293 cells; anti‐Flag detection
Excerpt: (§1) pDONR223‐RPS6KA2 (Johannessen et al, 2010) was a gift from William Hahn & David Root (Addgene plasmid # 23530). The gene was PCR‐amplified introducing HindIII and EcoRI restriction sites along with the C‐terminal phosphomimetic (S730E) or phosphoinhibiting (S730A) mutations, or the PDZbm deletion (T731‐L733). pKH3‐human RSK1 was a gift from John Blenis (Addgene plasmid # 13841; Richards et al, 2001). The gene was PCR‐amplified introducing HindIII and EcoRI restriction sites, and a and PDZbm deletion (T733‐L735) was generated. The genes (wild type and mutants) were cloned into 3xFlag CMV‐10 vector and subjected to Sanger sequencing. […]
(§2) The plasmids encoding 3xFlag RPS6KA2 wild type and mutants thereof, 3xFlag RPS6KA1 and mutants thereof, and GFP‐tagged full‐length human Scribble (Navarro et al, 2005) were Midipreped using PureLink HiPure Plasmid Midiprep Kit (Invitrogen). […] The membranes were immunoblotted with anti‐Flag (ab1162; Abcam), anti‐GFP (ab6556; Abcam), and anti‐actin (ab1801; Abcam) primary antibodies followed by HRP‐conjugated anti rabbit secondary antibody (Life technologies) and detected with Amersham ECL Western Blotting Detection Reagent (GE Healthcare), and exposed to high‐performance chemiluminescence film (Amersham Hyperfilm ECL; GE Healthcare) for 30–180 s and developed and fixed using GBX developer and fixer (Carestream Dental).

[1] = system: GFP‐tagged full‐length Scribble; assay: Co-immunoprecipitation in HEK293 cells; assay type: binding, human; conditions: transient expression in HEK293 cells; anti‐Flag beads; anti‐Flag and anti‐GFP detection
Excerpt: as §1, §2

| Molecule | GST‐pulldown with GST‐tagged Scribble PDZ1 (GST‐tagged Scribble PDZ1) | co‐IP with GFP‐tagged full‐length Scribble [1] |
| --- | --- | --- |
| B1 | interaction was further confirmed |  |
| B2 | confirmed an interaction | strong co‐IP |
